Source: article PMC8131363 (Scientific Reports, 2021)
Structures can show the parent of a compound that is named as a salt. Starred links: 1 amine or outer side, 2 acyl side, 3 side chain; linkers in the order of their positions; H or OH if unused. Non-standard residues stand in square brackets, D forms with d. No end group written: not given here. γGlu = O=C(O)[C@H](CCC(=O)[*:2])N[*:1]; βAsp = O=C(O)[C@H](CC(=O)[*:2])N[*:1]

Columns and labels:
[1] = molecular target: domestic cat Calcium Sensing Receptor (cCaSR) (Felis catus)
cCaSR [2] = molecular target: T1, cCaSR (Felis catus, UniProt C7FF08); test: cCaSR PAM luminescence assay, double injection with 0.5 mM CaCl2, HEK293/T-REx/natClytin-cCaSR; settings: Supplementary Table I, PAM assay, dash = no activity
T1 sequence (C7FF08 1-1081): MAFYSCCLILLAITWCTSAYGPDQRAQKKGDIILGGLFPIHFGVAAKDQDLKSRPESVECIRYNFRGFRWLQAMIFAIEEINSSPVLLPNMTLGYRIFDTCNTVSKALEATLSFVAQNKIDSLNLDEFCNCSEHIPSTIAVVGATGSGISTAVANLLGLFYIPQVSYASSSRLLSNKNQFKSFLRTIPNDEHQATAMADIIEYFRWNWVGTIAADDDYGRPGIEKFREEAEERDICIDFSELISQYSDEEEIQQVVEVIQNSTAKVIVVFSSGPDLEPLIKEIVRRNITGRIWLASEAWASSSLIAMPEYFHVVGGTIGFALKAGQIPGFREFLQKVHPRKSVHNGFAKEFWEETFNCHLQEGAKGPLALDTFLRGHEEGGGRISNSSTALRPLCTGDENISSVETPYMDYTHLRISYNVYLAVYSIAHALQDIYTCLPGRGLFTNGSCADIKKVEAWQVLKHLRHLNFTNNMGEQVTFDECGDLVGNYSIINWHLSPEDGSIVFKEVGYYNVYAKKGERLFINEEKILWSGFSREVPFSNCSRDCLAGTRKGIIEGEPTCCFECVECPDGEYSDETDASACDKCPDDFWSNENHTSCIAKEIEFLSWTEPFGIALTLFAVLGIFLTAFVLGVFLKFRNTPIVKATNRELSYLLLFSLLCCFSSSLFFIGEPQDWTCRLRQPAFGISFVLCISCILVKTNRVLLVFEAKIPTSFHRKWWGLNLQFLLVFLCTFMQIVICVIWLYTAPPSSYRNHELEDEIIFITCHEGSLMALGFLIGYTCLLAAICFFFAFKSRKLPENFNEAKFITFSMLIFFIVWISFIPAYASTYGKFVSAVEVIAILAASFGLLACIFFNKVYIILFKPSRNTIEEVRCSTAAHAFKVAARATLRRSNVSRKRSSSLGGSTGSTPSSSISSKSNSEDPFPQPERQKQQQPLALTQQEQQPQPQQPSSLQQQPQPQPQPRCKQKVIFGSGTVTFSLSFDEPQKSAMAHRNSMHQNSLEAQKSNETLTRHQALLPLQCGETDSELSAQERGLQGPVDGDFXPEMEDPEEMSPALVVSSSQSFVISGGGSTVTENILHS

cCaSR [3] = molecular target: T1, cCaSR; test: cell-based; settings: agonist assay
cCaSR [4] = molecular target: T1, cCaSR
[5] = EC50 (M), stable inducible cCaSR line, > 0.01 M = maximal response not reached
[6] = EC50 Ago (M), Supplementary Table I, > 0.01 M = maximal response not reached
[7] = cCaSR activity, stable inducible cCaSR line, at least three wells

EC50 of agonist activity, luminescence (natClytin) in HEK T-Rex/natClytin cells inducibly expressing cCaSR, calcium-free buffer; activity grade + [1] [mM]	EC50 of agonist activity, luminescence (natClytin) in HEK T-Rex/natClytin cells inducibly expressing cCaSR, calcium-free buffer; activity grade ++ [1] [mM]	Compound	also measured
3.15		[βAsp]-Leu	
	4.2	γ-D-Glu-Trp (peptide)	
> 10		[βAsp]-Gly	
> 10		[βAsp]-Ala	
		N[C@@H](CS(=O)(=O)O)C(=O)O [L-Cysteic acid monohydrate]	EC50 PAM (M) (cCaSR [2]): -; EC50 (cCaSR [3]; [5]): 0.00234 M; EC50 (cCaSR [3]; [6]): 0.00234 M; EC50 (cCaSR [3]; [7]): 0.001 to 0.01 M; agonist activity on cCaSR (in words) (cCaSR [4]): agonist activity
> 10		S-Lactoylglutathione (peptide)	
> 10		[γGlu]-Ala	
	2.11	S-(2-Hydroxyethyl)glutathione (peptide)	
		N[C@@H](Cc1ccc(OP(=O)(O)O)cc1)C(=O)O [O-Phospho-L-tyrosine]	EC50 PAM (M) (cCaSR [2]): -; EC50 (cCaSR [3]; [7]): > 0.01 M; agonist activity on cCaSR (in words) (cCaSR [4]): agonist activity
> 10		[γGlu]-Gln	
> 10		[γGlu]-Glu-Gln	
> 10		[γGlu]-Met	
	4.42	S-Methylglutathione (peptide)	
> 10		[γGlu]-Leu	
> 10		[γGlu]-Cys	
		C[Se]C[C@H](N)C(=O)O [Se-(Methyl)selenocysteine]	EC50 PAM (M) (cCaSR [2]): -; EC50 (cCaSR [3]; [5]): 0.00447 M; EC50 (cCaSR [3]; [6]): 0.00447 M; EC50 (cCaSR [3]; [7]): 0.001 to 0.01 M; agonist activity on cCaSR (in words) (cCaSR [4]): agonist activity
> 10		[βAsp]-Phe	
	4.52	[γGlu]-Val	
	4.22	[γGlu]-Val-Gly	
		NC(CCCCC(=O)O)C(=O)O (stereo not drawn) [2-Aminopimelic acid]	EC50 PAM (M) (cCaSR [2]): -; EC50 (cCaSR [3]; [7]): > 0.01 M; EC50 Ago (M) (cCaSR [4]; Supplementary Table I, agonist assay, dash = no activity): -
		COC(=O)C[C@H](N)C(=O)O [L-Aspartic acid β-methyl ester hydrochloride]	EC50 PAM (M) (cCaSR [2]): -; EC50 (cCaSR [3]; [7]): > 0.01 M; agonist activity on cCaSR (in words) (cCaSR [4]): agonist activity
	3.88	[γGlu]-Tyr	
> 10		[γGlu]-Gly	
	2.07	[γGlu]-Glu	
	2.35	[γGlu]-Glu-Glu	
